Article PMC5291249, “Two p53 tetramers bind one consensus DNA response element”

Assays:
murine p53 (mp53) [1] = biological target: T1, murine p53 (mp53) (mouse, UniProt P02340 1-390); assay: EMSA (GA cross-linked SDS-PAGE); 25 mM Tris-HCl pH 7.5, 2 mM DTT, 100 mM NaCl, 1 mM ADP, 5 mM MgCl2 (or 20 mM HEPES pH 7.5, 10 mM ADP), 25 C, then 0.025% glutaraldehyde 20 min; 'weaker' refers; details: protein: recombinant, chain copies: 4
human p53 (hp53) [2] = biological target: T2, human p53 (hp53) (Homo sapiens, UniProt P04637 1-393); assay: as above; details: protein: recombinant, chain copies: 4
mp53 R273H = mp53 R273H (mouse, UniProt P02340 1-390, R270H); assay: EMSA (GA cross-linked, IR dye); 25 mM Tris-HCl pH 7.5, 2 mM DTT, 100 mM NaCl, 1 mM ADP, 5 mM MgCl2 (or 20 mM HEPES pH 7.5, 10 mM ADP), 25 C, then 0.025% glutaraldehyde 20 min; 'weaker' refers; details: protein: recombinant, chain copies: 4
murine p53 (mp53) [3] = biological target: T1, murine p53 (mp53); assay: as above; details: protein: recombinant; chain copies: 4; label: 5' IR800 both strands; blunt
human p53 (hp53) [4] = biological target: T2, human p53 (hp53); assay: as above; details: protein: recombinant; chain copies: 4; label: 5' IR800 both strands; blunt
mp53Δ30 = mp53Δ30 (mouse, UniProt P02340 1-360); assay: as above; details: protein: recombinant; chain copies: 4; label: 5' IR800 both strands; blunt
murine p53 (mp53) [5] = biological target: T1, murine p53 (mp53); assay: EMSA (GA cross-linked SDS-PAGE); multiple tetramers; 25 mM Tris-HCl pH 7.5, 2 mM DTT, 100 mM NaCl, 1 mM ADP, 5 mM MgCl2 (or 20 mM HEPES pH 7.5, 10 mM ADP), 25 C, then 0.025% glutaraldehyde 20 min; 'weaker' refers; details: protein: recombinant; chain copies: 4; blunt
murine p53 (mp53) [6] = biological target: T1, murine p53 (mp53); assay: EMSA (GA cross-linked SDS-PAGE); increased vs 2 bp spacer; 25 mM Tris-HCl pH 7.5, 2 mM DTT, 100 mM NaCl, 1 mM ADP, 5 mM MgCl2 (or 20 mM HEPES pH 7.5, 10 mM ADP), 25 C, then 0.025% glutaraldehyde 20 min; 'weaker' refers; details: protein: recombinant; chain copies: 4; blunt
human p53 (hp53) [7] = biological target: T2, human p53 (hp53); assay: as above; details: protein: recombinant; chain copies: 4; blunt
murine p53 (mp53) [8] = biological target: T1, murine p53 (mp53); assay: EMSA (GA cross-linked SDS-PAGE); among most efficient; 25 mM Tris-HCl pH 7.5, 2 mM DTT, 100 mM NaCl, 1 mM ADP, 5 mM MgCl2 (or 20 mM HEPES pH 7.5, 10 mM ADP), 25 C, then 0.025% glutaraldehyde 20 min; 'weaker' refers; details: protein: recombinant; chain copies: 4
human p53 (hp53) [9] = biological target: T2, human p53 (hp53); assay: EMSA (GA cross-linked SDS-PAGE); multiple tetramers; 25 mM Tris-HCl pH 7.5, 2 mM DTT, 100 mM NaCl, 1 mM ADP, 5 mM MgCl2 (or 20 mM HEPES pH 7.5, 10 mM ADP), 25 C, then 0.025% glutaraldehyde 20 min; 'weaker' refers; details: protein: recombinant; chain copies: 4; blunt

B1: gadd45 RE (Table 1) (dsDNA)
DNA 1: GAACATGTCTAAGCATGCTG
DNA 2: CAGCATGCTTAGACATGTTC
binding result (murine p53 (mp53) [1]): binds
binding result (human p53 (hp53) [2]): binds
binding result (mp53 R273H): no binding

B2: p21 RE (dsDNA)
DNA 1: GAACATGTCCCAACATGTTG
DNA 2: CAACATGTTGGGACATGTTC
binding result (murine p53 (mp53) [1]): binds

B3: gadd45_0 (dsDNA)
DNA 1: ATGAAATGAACATGTCTAGGCATGCTGAATTAAT
DNA 2: ATTAATTCAGCATGCCTAGACATGTTCATTTCAT
binding result (murine p53 (mp53) [3]): binds
binding result (human p53 (hp53) [4]): binds
binding result (mp53Δ30): binds

B4: DNA31 (1 bp spacer) (dsDNA)
DNA 1: AGCATTGGCTTTCTGGCCATCAGAGACATGCCTGAGACATGCCTAGCTCTGGCATAGAAGAGGCGCT
DNA 2: AGCGCCTCTTCTATGCCAGAGCTAGGCATGTCTCAGGCATGTCTCTGATGGCCAGAAAGCCAATGCT
binding result (murine p53 (mp53) [1]; blunt): binds
binding result (human p53 (hp53) [2]; blunt): binds

B5: DNA21 (dsDNA)
DNA 1: AGCATTGGCTTTCTGGCCATCAGAGACATGCCTAGACATGCCTAGCTCTGGCATAGAAGAGGCGCT
DNA 2: AGCGCCTCTTCTATGCCAGAGCTAGGCATGTCTAGGCATGTCTCTGATGGCCAGAAAGCCAATGCT
binding result (human p53 (hp53) [2]; blunt): binds
binding result (murine p53 (mp53) [5]): binds

B6: Tigar_NS (spacer removed) (dsDNA)
DNA 1: AGCATTGGCTTTCTGGCCATCAGAGACATGTCCAGACTTGTCTAGCTCTGGCATAGAAGAGGCGCT
DNA 2: AGCGCCTCTTCTATGCCAGAGCTAGACAAGTCTGGACATGTCTCTGATGGCCAGAAAGCCAATGCT
binding result (murine p53 (mp53) [6]): binds
binding result (human p53 (hp53) [7]): binds

B7: DNA6 (no spacer) (dsDNA)
DNA 1: ATGAAATAGACATGCCTAGACATGCCTGAATTAAT
DNA 2: ATTAATTCAGGCATGTCTAGGCATGTCTATTTCAT
binding result (murine p53 (mp53) [1]): binds
binding result (human p53 (hp53) [2]): binds

B8: bax RE (dsDNA)
DNA 1: GGGCTATATTTCACAAGTTAGAGACAAGCCTGGGCGTGGGCTATATT
DNA 2: AATATAGCCCACGCCCAGGCTTGTCTCTAACTTGTGAAATATAGCCC
binding result (murine p53 (mp53) [8]): binds
binding result (human p53 (hp53) [2]): binds

B9: RGC RE (dsDNA)
DNA 1: TGCCTTGCCTGGACTTGCCTGGCCTTGCCT
DNA 2: AGGCAAGGCCAGGCAAGTTCAGGCAAGGCA
binding result (human p53 (hp53) [2]): binds

B10: non-specific control DNA (20 bp) (dsDNA)
DNA 1: TCGATCCTCTATGAATTAT
DNA 2: ATAATTCATAGAGGATCGA
binding result (mp53 R273H; label: 5' IR700 both strands): no binding

B11: DNA1 (dsDNA)
DNA 1: AGACATGCCTAGACATGCCT
DNA 2: AGGCATGTCTAGGCATGTCT
binding result (murine p53 (mp53) [5]): binds
binding result (human p53 (hp53) [9]): binds

B12: gadd45_1 (dsDNA)
DNA 1: ATGAAATGAACATGTCTGAGGCATGCTGAATTAA
DNA 2: TTAATTCAGCATGCCTCAGACATGTTCATTTCAT
binding result (murine p53 (mp53) [3]): binds
binding result (human p53 (hp53) [4]): binds

B13: MCK RE (dsDNA)
DNA 1: TGGCAAGCCTATGACATGGCCGGGGCCTGCCT
DNA 2: AGGCAGGCCCCGGCCATGTCATAGGCTTGCCA
binding result (human p53 (hp53) [2]): binds
